In paper PMC3105431:

Experiments:
U2AF65 = U2AF65 (human, UniProt P26368 1-475); test: EMSA
U2AF65;U2AF35 = U2AF65;U2AF35 (human;human, UniProt P26368;Q01081 1-475;1-240, |); test: EMSA
Sequence of U2AF65;U2AF35 (P26368 whole entry, chain 1 of 2): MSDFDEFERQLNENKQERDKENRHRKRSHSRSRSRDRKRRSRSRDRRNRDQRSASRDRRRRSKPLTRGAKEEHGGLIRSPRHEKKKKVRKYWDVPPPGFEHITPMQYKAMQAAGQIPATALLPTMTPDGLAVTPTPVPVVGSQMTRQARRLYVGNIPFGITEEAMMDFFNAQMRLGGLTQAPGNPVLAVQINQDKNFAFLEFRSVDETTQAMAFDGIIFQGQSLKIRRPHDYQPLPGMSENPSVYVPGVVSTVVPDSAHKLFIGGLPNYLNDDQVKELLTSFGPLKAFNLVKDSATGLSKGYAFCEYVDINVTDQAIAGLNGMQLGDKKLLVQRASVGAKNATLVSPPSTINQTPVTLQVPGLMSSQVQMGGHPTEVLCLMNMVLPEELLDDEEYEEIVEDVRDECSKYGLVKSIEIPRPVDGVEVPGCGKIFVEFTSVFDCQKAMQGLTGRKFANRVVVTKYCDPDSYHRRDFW
Sequence of U2AF65;U2AF35 (Q01081 whole entry, chain 2 of 2): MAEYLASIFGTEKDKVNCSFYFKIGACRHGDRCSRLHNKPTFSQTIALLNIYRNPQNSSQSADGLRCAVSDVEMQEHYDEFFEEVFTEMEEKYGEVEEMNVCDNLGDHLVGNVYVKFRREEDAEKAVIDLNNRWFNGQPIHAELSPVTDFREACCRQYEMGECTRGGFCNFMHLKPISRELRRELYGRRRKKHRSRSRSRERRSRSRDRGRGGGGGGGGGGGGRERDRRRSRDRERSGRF

Sequence of U2AF65 (P26368 whole entry, one chain of several): as the sequence (P26368 whole entry, chain 1 of 2) above

GGGAGACAGGCUUACGCAUUCGUCUAUCUUUCGCAUAGUUUGGUCCA (ssRNA) [FECH mutant (PT, E+1 G>U)]
binding result (U2AF65): no binding
binding result (U2AF65;U2AF35): no binding
